Test results taken from patent US20140087995A1 (published 2014).
Numbered stars: 1 amine (or outer) side, 2 acyl side, 3 side chain; on linkers, the order of the positions; unused ones are H or OH. Bridge positions count the residues as written; N and C are the ends. Side chains are listed from the residue outwards. Ends that are not written are not given here. * marks the point of attachment. C20 diacid = O=C(O)CCCCCCCCCCCCCCCCCCC(=O)*; C18 diacid = O=C(O)CCCCCCCCCCCCCCCCC(=O)*; C16 diacid = O=C(O)CCCCCCCCCCCCCCC(=O)*; γGlu = O=C(O)[C@H](CCC(=O)[*:2])N[*:1]; C14 diacid = O=C(O)CCCCCCCCCCCCC(=O)*

T1: human amylin receptor (amylin 3(a) receptor: human calcitonin receptor coexpressed with RAMP-3) (human, UniProt P30988 25-474; O60896 24-148)
T1 sequence (looked up) 1: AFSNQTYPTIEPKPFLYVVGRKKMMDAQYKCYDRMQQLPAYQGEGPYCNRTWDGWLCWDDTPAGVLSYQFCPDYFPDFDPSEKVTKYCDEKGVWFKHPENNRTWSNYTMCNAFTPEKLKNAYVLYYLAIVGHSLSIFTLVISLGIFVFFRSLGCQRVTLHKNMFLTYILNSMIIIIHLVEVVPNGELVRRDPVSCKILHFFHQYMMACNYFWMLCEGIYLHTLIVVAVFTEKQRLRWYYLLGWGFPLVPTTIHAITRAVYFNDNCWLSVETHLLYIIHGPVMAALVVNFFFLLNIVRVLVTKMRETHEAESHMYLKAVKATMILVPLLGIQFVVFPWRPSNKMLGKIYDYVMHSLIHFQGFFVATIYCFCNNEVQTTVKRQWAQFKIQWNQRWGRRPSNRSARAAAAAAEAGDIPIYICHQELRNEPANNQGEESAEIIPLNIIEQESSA
T1 sequence (looked up) 2: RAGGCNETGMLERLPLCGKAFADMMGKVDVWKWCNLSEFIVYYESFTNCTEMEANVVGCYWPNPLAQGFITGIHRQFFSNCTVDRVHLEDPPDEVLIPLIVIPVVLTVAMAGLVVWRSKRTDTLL

T2: human calcitonin receptor (human, UniProt P30988 25-474)
T2 sequence (looked up): T1 sequence (looked up) 1

B1: N^ε1-[(4S)-4-carboxy-4-(15-carboxypentadecanoylamino)butanoyl]-[Arg17,Pro21,Pro27,His34]-h-amylin (peptide)
peptide: K([γGlu-C16 diacid])CNTATCATQRLANFLRHSSPNFGAIPSSTNVGHNTY-NH2
modifications: disulfide 2-7; N-terminus assumed
SMILES: CC[C@H](C)[C@H](NC(=O)[C@H](C)NC(=O)CNC(=O)[C@H](Cc1ccccc1)NC(=O)[C@H](CC(N)=O)NC(=O)[C@@H]1CCCN1C(=O)[C@H](CO)NC(=O)[C@H](CO)NC(=O)[C@H](Cc1c[nH]cn1)NC(=O)[C@H](CCCNC(=N)N)NC(=O)[C@H](CC(C)C)NC(=O)[C@H](Cc1ccccc1)NC(=O)[C@H](CC(N)=O)NC(=O)[C@H](C)NC(=O)[C@H](CC(C)C)NC(=O)[C@H](CCCNC(=N)N)NC(=O)[C@H](CCC(N)=O)NC(=O)[C@@H](NC(=O)[C@H](C)NC(=O)[C@@H]1CSSC[C@H](NC(=O)[C@@H](N)CCCCNC(=O)CC[C@H](NC(=O)CCCCCCCCCCCCCCC(=O)O)C(=O)O)C(=O)N[C@@H](CC(N)=O)C(=O)N[C@@H]([C@@H](C)O)C(=O)N[C@@H](C)C(=O)N[C@@H]([C@@H](C)O)C(=O)N1)[C@@H](C)O)C(=O)N1CCC[C@H]1C(=O)N[C@@H](CO)C(=O)N[C@@H](CO)C(=O)N[C@H](C(=O)N[C@@H](CC(N)=O)C(=O)N[C@H](C(=O)NCC(=O)N[C@@H](Cc1c[nH]cn1)C(=O)N[C@@H](CC(N)=O)C(=O)N[C@H](C(=O)N[C@@H](Cc1ccc(O)cc1)C(N)=O)[C@@H](C)O)C(C)C)[C@@H](C)O
B2: N^ε1-[(4S)-4-carboxy-4-(17-carboxyheptadecanoylamino)butanoyl]-[Arg17,Pro21,Pro27,His34]-h-amylin (peptide)
peptide: K([γGlu-C18 diacid])CNTATCATQRLANFLRHSSPNFGAIPSSTNVGHNTY-NH2
modifications: disulfide 2-7; N-terminus assumed
SMILES: CC[C@H](C)[C@H](NC(=O)[C@H](C)NC(=O)CNC(=O)[C@H](Cc1ccccc1)NC(=O)[C@H](CC(N)=O)NC(=O)[C@@H]1CCCN1C(=O)[C@H](CO)NC(=O)[C@H](CO)NC(=O)[C@H](Cc1c[nH]cn1)NC(=O)[C@H](CCCNC(=N)N)NC(=O)[C@H](CC(C)C)NC(=O)[C@H](Cc1ccccc1)NC(=O)[C@H](CC(N)=O)NC(=O)[C@H](C)NC(=O)[C@H](CC(C)C)NC(=O)[C@H](CCCNC(=N)N)NC(=O)[C@H](CCC(N)=O)NC(=O)[C@@H](NC(=O)[C@H](C)NC(=O)[C@@H]1CSSC[C@H](NC(=O)[C@@H](N)CCCCNC(=O)CC[C@H](NC(=O)CCCCCCCCCCCCCCCCC(=O)O)C(=O)O)C(=O)N[C@@H](CC(N)=O)C(=O)N[C@@H]([C@@H](C)O)C(=O)N[C@@H](C)C(=O)N[C@@H]([C@@H](C)O)C(=O)N1)[C@@H](C)O)C(=O)N1CCC[C@H]1C(=O)N[C@@H](CO)C(=O)N[C@@H](CO)C(=O)N[C@H](C(=O)N[C@@H](CC(N)=O)C(=O)N[C@H](C(=O)NCC(=O)N[C@@H](Cc1c[nH]cn1)C(=O)N[C@@H](CC(N)=O)C(=O)N[C@H](C(=O)N[C@@H](Cc1ccc(O)cc1)C(N)=O)[C@@H](C)O)C(C)C)[C@@H](C)O
B3: N^ε1-[(4S)-4-carboxy-4-(13-carboxytridecanoylamino)butanoyl]-[Arg17,Pro21,Pro27,His34]-h-amylin (peptide)
peptide: K([γGlu-C14 diacid])CNTATCATQRLANFLRHSSPNFGAIPSSTNVGHNTY-NH2
modifications: disulfide 2-7; N-terminus assumed
SMILES: CC[C@H](C)[C@H](NC(=O)[C@H](C)NC(=O)CNC(=O)[C@H](Cc1ccccc1)NC(=O)[C@H](CC(N)=O)NC(=O)[C@@H]1CCCN1C(=O)[C@H](CO)NC(=O)[C@H](CO)NC(=O)[C@H](Cc1c[nH]cn1)NC(=O)[C@H](CCCNC(=N)N)NC(=O)[C@H](CC(C)C)NC(=O)[C@H](Cc1ccccc1)NC(=O)[C@H](CC(N)=O)NC(=O)[C@H](C)NC(=O)[C@H](CC(C)C)NC(=O)[C@H](CCCNC(=N)N)NC(=O)[C@H](CCC(N)=O)NC(=O)[C@@H](NC(=O)[C@H](C)NC(=O)[C@@H]1CSSC[C@H](NC(=O)[C@@H](N)CCCCNC(=O)CC[C@H](NC(=O)CCCCCCCCCCCCC(=O)O)C(=O)O)C(=O)N[C@@H](CC(N)=O)C(=O)N[C@@H]([C@@H](C)O)C(=O)N[C@@H](C)C(=O)N[C@@H]([C@@H](C)O)C(=O)N1)[C@@H](C)O)C(=O)N1CCC[C@H]1C(=O)N[C@@H](CO)C(=O)N[C@@H](CO)C(=O)N[C@H](C(=O)N[C@@H](CC(N)=O)C(=O)N[C@H](C(=O)NCC(=O)N[C@@H](Cc1c[nH]cn1)C(=O)N[C@@H](CC(N)=O)C(=O)N[C@H](C(=O)N[C@@H](Cc1ccc(O)cc1)C(N)=O)[C@@H](C)O)C(C)C)[C@@H](C)O
B4: N{-1}-[(4S)-4-carboxy-4-(19-carboxynonadecanoylamino)butanoyl]-Gly[Arg1,His14,Arg17,Pro21,Pro27]-h-amylin (peptide)
peptide: {C20 diacid-γGlu}-GRCNTATCATQRLAHFLRHSSPNFGAIPSSTNVGSNTY-NH2
modifications: disulfide 3-8
SMILES: CC[C@H](C)[C@H](NC(=O)[C@H](C)NC(=O)CNC(=O)[C@H](Cc1ccccc1)NC(=O)[C@H](CC(N)=O)NC(=O)[C@@H]1CCCN1C(=O)[C@H](CO)NC(=O)[C@H](CO)NC(=O)[C@H](Cc1c[nH]cn1)NC(=O)[C@H](CCCNC(=N)N)NC(=O)[C@H](CC(C)C)NC(=O)[C@H](Cc1ccccc1)NC(=O)[C@H](Cc1c[nH]cn1)NC(=O)[C@H](C)NC(=O)[C@H](CC(C)C)NC(=O)[C@H](CCCNC(=N)N)NC(=O)[C@H](CCC(N)=O)NC(=O)[C@@H](NC(=O)[C@H](C)NC(=O)[C@@H]1CSSC[C@H](NC(=O)[C@H](CCCNC(=N)N)NC(=O)CNC(=O)CC[C@H](NC(=O)CCCCCCCCCCCCCCCCCCC(=O)O)C(=O)O)C(=O)N[C@@H](CC(N)=O)C(=O)N[C@@H]([C@@H](C)O)C(=O)N[C@@H](C)C(=O)N[C@@H]([C@@H](C)O)C(=O)N1)[C@@H](C)O)C(=O)N1CCC[C@H]1C(=O)N[C@@H](CO)C(=O)N[C@@H](CO)C(=O)N[C@H](C(=O)N[C@@H](CC(N)=O)C(=O)N[C@H](C(=O)NCC(=O)N[C@@H](CO)C(=O)N[C@@H](CC(N)=O)C(=O)N[C@H](C(=O)N[C@@H](Cc1ccc(O)cc1)C(N)=O)[C@@H](C)O)C(C)C)[C@@H](C)O
notes: 38 residues: Gly added before position 1 of human amylin; also called compound 99

biological target: T1, human amylin receptor (amylin 3(a) …); experiment: cell-based or functional assay

Binder | hAmylin-R funct. EC50 (pM)
B1 | 34
B2 | 96
B3 | 28
B4 | 82

biological target: T2, human calcitonin receptor; experiment: cell-based or functional assay

Binder | Ratio hCT/hAmylin funct. | hCTR funct. EC50 (pM)
B1 | 65.1 | 2210
B2 | 60.9 | 5850
B3 | 38.8 | 1090
B4 | 10 | 818
